From paper PMC11865472 come the findings set out here.

In assay [1] the target is T1, TGF-β2 (growth factor domain, wild type) (human).
T1 sequence (P61812 303-414, looked up): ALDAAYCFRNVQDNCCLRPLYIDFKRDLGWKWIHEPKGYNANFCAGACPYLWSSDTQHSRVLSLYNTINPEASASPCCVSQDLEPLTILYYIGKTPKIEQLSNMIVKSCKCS
The experiment in a line: SPR; TGF-β2 immobilised on the chip surface; ratBGO, zfBGO, ratBGO-zfBL or ratBGO-Y248A injected, 2-fold dilution series 500 - 31.3 nM; three consecutive repeats. A general note: Surface plasmon resonance follows binding to a sensor surface in real time, without labels.

The target in assay [2] is T2, rat betaglycan ZP-C domain (BG_(ZP-C)), mammalian-expressed.
T2 chain: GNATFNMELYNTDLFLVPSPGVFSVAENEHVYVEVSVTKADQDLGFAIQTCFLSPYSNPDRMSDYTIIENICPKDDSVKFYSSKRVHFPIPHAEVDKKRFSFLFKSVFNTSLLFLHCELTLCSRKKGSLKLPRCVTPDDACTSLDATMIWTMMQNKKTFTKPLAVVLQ
The experiment in a line: SPR. The conditions noted are these: chain shown with the change; analyte: BGZP-C; parent: est. 95; read off a plot.

Assay [3] has as its target T3, inhibin A (InhA), mature heterodimer, unlabelled, P05111;P08476.
T3 chain 1: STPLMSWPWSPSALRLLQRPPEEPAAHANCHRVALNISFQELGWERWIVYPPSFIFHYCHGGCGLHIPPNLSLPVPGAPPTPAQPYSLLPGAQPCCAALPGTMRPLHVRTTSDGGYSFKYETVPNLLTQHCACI
T3 chain 2: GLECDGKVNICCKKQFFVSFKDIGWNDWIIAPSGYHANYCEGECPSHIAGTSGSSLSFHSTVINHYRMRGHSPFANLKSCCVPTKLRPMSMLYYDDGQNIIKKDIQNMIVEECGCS
The assay can be described thus: SPR. To be noted: chain shown with the change.

The target in assay [4] is TGF-β2 (Q57A, K60A, L64A) (human). The assay can be described thus: SPR; BIAcore T200; TGF-β2 WT or TGF-β2 mutants amine-coupled (EDC-NHS) to a CM4 chip, max 400 RU; zfBGO WT or BGZP-C WT injected, 2-fold dilution series 250 - 15.6 nM; 10 mM CHES, 150 mM NaCl, 3 mM EDTA, 0.01% P20, pH 8.0; 100 µl/min; 1:1 kinetic model with drift; three consecutive repeats.
For assay [5], the target named is TGF-β2 (Y50A, L51A) (human). The assay is described as above.
In assay [6] the target is T1, TGF-β2 (growth factor domain, wild type) (human). Described as above.
The mark [7] stands for this setting: surface: InhA, parent: est. 1100 nM, read off a plot.

B1: rat betaglycan orphan domain (ratBGO), wild type (domain or fragment)
chain: CELSPINASHPVQALMESFTVLSGCASRGTTGLPREVHVLNLRSTDQGPGQRQREVTLHLNPIASVHTHHKPIVFLLNSPQPLVWHLKTERLAAGVPRLFLVSEGSVVQFPSGNFSLTAETEERNFPQENEHLLRWAQKEYGAVTSFTELKIARNIYIKVGEDQVFPPTCNIGKNFLSLNYLAEYLQPKAAEGCVLPSQPHEKEVHIIELITPSSNPYSAFQVDIIVDIRPAQEDPEVVKNLVLILKCKKSVNWVIKSFDVKGNLKVIAPNSIGFGKESERSMTMTKLVRDDIPSTQENLMKWALDNGYRPVTSYTMAPVANRFHLRLEN
As usually defined, the Kd is the constant that tells how readily two partners part at equilibrium. In turn, B1 came in with a Kd in assay [1] of 72 nM.

B2: ratBGO-Y248A (domain or fragment)
chain: CELSPINASHPVQALMESFTVLSGCASRGTTGLPREVHVLNLRSTDQGPGQRQREVTLHLNPIASVHTHHKPIVFLLNSPQPLVWHLKTERLAAGVPRLFLVSEGSVVQFPSGNFSLTAETEERNFPQENEHLLRWAQKEYGAVTSFTELKIARNIYIKVGEDQVFPPTCNIGKNFLSLNYLAEYLQPKAAEGCVLPSQPHEKEVHIIELITPSSNPASAFQVDIIVDIRPAQEDPEVVKNLVLILKCKKSVNWVIKSFDVKGNLKVIAPNSIGFGKESERSMTMTKLVRDDIPSTQENLMKWALDNGYRPVTSYTMAPVANRFHLRLEN
For the molecule B2, in assay [1], the Kd was found to be 102 nM.

B3: TGF-β2 homodimer (growth factor domain), unlabelled Y50A; L51A (protein)
chain: ALDAAYCFRNVQDNCCLRPLYIDFKRDLGWKWIHEPKGYNANFCAGACPAAWSSDTQHSRVLSLYNTINPEASASPCCVSQDLEPLTILYYIGKTPKIEQLSNMIVKSCKCS
Turning to B3, in assay [2], the Kd is 110 nM.

B4: rat betaglycan ZP-C domain (BG_(ZP-C)), mammalian-expressed N82Y (protein)
chain: GNATFNMELYNTDLFLVPSPGVFSVAENEHVYVEVSVTKADQDLGFAIQTCFLSPYSNPDRMSDYTIIEYICPKDDSVKFYSSKRVHFPIPHAEVDKKRFSFLFKSVFNTSLLFLHCELTLCSRKKGSLKLPRCVTPDDACTSLDATMIWTMMQNKKTFTKPLAVVLQ
In the case of B4, the Kd in assay [3] (setting [7]) turned out to be 850 nM.

B5: rat betaglycan ZP-C domain (BG_(ZP-C)), mammalian-expressed A158E (protein)
chain: GNATFNMELYNTDLFLVPSPGVFSVAENEHVYVEVSVTKADQDLGFAIQTCFLSPYSNPDRMSDYTIIENICPKDDSVKFYSSKRVHFPIPHAEVDKKRFSFLFKSVFNTSLLFLHCELTLCSRKKGSLKLPRCVTPDDACTSLDETMIWTMMQNKKTFTKPLAVVLQ
With B5, the Kd was found to be 1810 nM in assay [3] (500 - 15.6 nM, 2-fold dilution series) and 1800 nM in assay [3] (setting [7]).

B6: rat betaglycan ZP-C domain (BGZP-C), wild type (domain or fragment)
chain: GNATFNMELYNTDLFLVPSPGVFSVAENEHVYVEVSVTKADQDLGFAIQTCFLSPYSNPDRMSDYTIIENICPKDDSVKFYSSKRVHFPIPHAEVDKKRFSFLFKSVFNTSLLFLHCELTLCSRKKGSLKLPRCVTPDDACTSLDATMIWTMMQNKKTFTKPLAVVLQ
B6: the Kd came out at 99 nM in assay [4], 113 nM in assay [5] and 95 nM in assay [6].
